Entries after “also recorded” stand apart in the source; their conditions may differ. Peptide text beside a SMILES is read from it. * marks the point of attachment. X1 = CCc1c2c(nc3ccc(OC(=O)[C@H]4CC[C@H](CNC(=O)[C@H]5CC[C@H](CN6C(=O)CC(*)C6=O)CC5)CC4)cc13)-c1cc3c(c(=O)n1C2)COC(=O)[C@]3(O)CC
Legend:
[1] = Phase I plasma pharmacokinetics of DTS-108, SN-38 and SN-38G; format: in vivo; settings: human, iv
[2] = Phase I dose escalation: toxicity; format: in vivo, human; settings: for Other toxicities: Type of toxicity and grade: UR unrelated, R probably related
[3] = tested on: advanced or metastatic solid tumors; test: Tumor response; format: in vivo, human
[4] = tested on: cardiac repolarization; test: Cardiovascular effects: QRS and QTc intervals; format: in vivo, human
[5] = Solubility in water; format: physicochemical
[6] = dogs, 4.5–53 mg free base/kg; preclinical, ref not given; cited from earlier work
[7] = tested on: dog basophils; settings: in vitro, preclinical, ref not given; cited from earlier work
[8] = tested on: human basophils; settings: in vitro, preclinical, ref not given; cited from earlier work
[9] = dose 313 mg/m^2, Hyperbilirubinemia (UR)
[10] = drug-related, repeated dosing, all doses, n=42

Q: Which Tmax ([1]; 3 mg/m2) does the source give for `CCc1c2c(nc3ccc(OC(=O)[C@H]4CC[C@H](CNC(=O)[C@H]5CC[C@H](CN6C(=O)CC(SC[C@H](N)C(=O)N[C@H](C(=O)N[C@@H](CCCCN)C(=O)N[C@@H](CCCNC(=N)N)C(=O)NCC(=O)N[C@@H](CC(C)C)C(=O)N[C@@H](CCCCN)C(=O)N[C@@H](CC(C)C)C(=O)N[C@@H](CCCNC(=N)N)C(=O)N[C@@H](Cc7c[nH]cn7)C(=O)N[C@H](C(=O)N[C@@H](CCCNC(=N)N)C(=O)N7CCC[C@H]7C(=O)N[C@@H](CCCNC(=N)N)C(=O)N[C@H](C(=O)N[C@H](C(=O)N[C@@H](CCCNC(=N)N)C(=O)N[C@@H](CCSC)C(=O)N[C@@H](CC(=O)O)C(=O)N[C@H](C(=O)O)C(C)C)[C@@H](C)O)C(C)C)C(C)C)C(C)C)C6=O)CC5)CC4)cc13)-c1cc3c(c(=O)n1C2)COC(=O)[C@]3(O)CC` (stereo partly drawn) [DTS-108] (H-C(X1)VKRGLKLRHVRPRVTRMDV-OH) here?
A: 0.25 h

Q: And the Tmax ([1]; 6 mg/m2)?
A: 1 h

Q: And the Tmax ([1]; 12 mg/m2)?
A: 0.97 h

Q: What about the Tmax ([1]; 24 mg/m2) of the same compound?
A: 0.98 h

Q: And the Tmax ([1]; 32 mg/m2)?
A: 1.11 h

Q: What about the Tmax ([1]; 42 mg/m2) of the same compound?
A: 1.32 h

Q: And the Tmax ([1]; 56 mg/m2)?
A: 0.96 h

Q: What about the Tmax ([1]; 75 mg/m2) of the same compound?
A: 1.44 h

Q: What about the Tmax ([1]; 100 mg/m2) of the same compound?
A: 1.31 h

Q: What about the Tmax ([1]; 133 mg/m2) of the same compound?
A: 0.99 h

Q: And the Tmax ([1]; 177 mg/m2)?
A: 1.45 h

Q: What about the Tmax ([1]; 235 mg/m2) of the same compound?
A: 1.27 h

Q: What about the AUC(0-inf) ([1]; 313 mg/m2) of the same compound?
A: 439 µg·h/mL

Q: What about the Tmax ([1]; 313 mg/m2) of the same compound?
A: 1.68 h

Q: What about the Tmax ([1]; 416 mg/m2) of the same compound?
A: 2.47 h

Q: And the “patients with Grade 3 neutropenia” value ([2]; 235 mg/m^2)?
A: one of four

Q: And the “patients with Grade 3 neutropenia” value ([2]; 313 mg/m^2)?
A: four of six

Q: What about the “patients with no dose-limiting neutropenia” value ([2]; 313 mg/m^2) of the same compound?
A: five of the six

Q: And the “patients with Grade 3 neutropenia” value ([2]; 416 mg/m^2)?
A: four of six

Q: What about the “patients with dose reductions to 313 mg/m^2” value ([2]; 416 mg/m^2) of the same compound?
A: three of six

Q: And the “patients with grade 4 neutropenia” value ([2]; 416 mg/m^2)?
A: three out of six

Q: And the “patients with infusion reactions” value ([2]; Cohort 11, 177 mg/m^2)?
A: all three

Q: And the nephrotoxicity ([2]; all doses)?
A: no evidence of nephrotoxicity

Q: What about the “dose-limiting toxicity (DLT)” value ([2]; cycle 1) of the same compound?
A: Neutropenia

Q: What about the “Other toxicities Grades 1–2, patients” value ([2]; dose 32 mg/m^2, Hyperbilirubinemia (UR)) of the same compound?
A: 1

Q: And the “Other toxicities Grades 1–2, patients” value ([2]; dose 32 mg/m^2, Respiratory and thoracic disorder (UR))?
A: 1

Q: What about the “Other toxicities: Type of toxicity and grade” value (from here on “Other toxicities: Type”) ([2]; dose 32 mg/m^2) of the same compound?
A: Respiratory and thoracic disorder (UR); also recorded: Hyperbilirubinemia (UR)

Q: And the “Other toxicities Grades 1–2, patients” value ([2]; dose 42 mg/m^2, Retroperitoneal hematoma (UR))?
A: 1

Q: And the “Other toxicities: Type” value ([2]; dose 42 mg/m^2)?
A: Retroperitoneal hematoma (UR)

Q: What about the “Other toxicities Grades 1–2, patients” value ([2]; dose 56 mg/m^2, Acute pancreatitis (UR)) of the same compound?
A: 1

Q: And the “Other toxicities Grades 1–2, patients” value ([2]; dose 56 mg/m^2, Hyperbilirubinemia (UR))?
A: 1

Q: What about the “Other toxicities: Type” value ([2]; dose 56 mg/m^2) of the same compound?
A: Acute pancreatitis (UR); also recorded: Hyperbilirubinemia (UR)

Q: What about the “Neutropenia All grades, patients” value ([2]; dose 75 mg/m^2, 3 patients) of the same compound?
A: 1

Q: And the “Neutropenia All grades, patients” value ([2]; dose 100 mg/m^2, 3 patients)?
A: 1

Q: What about the “Other toxicities Grades 1–2, patients” value ([2]; dose 100 mg/m^2, Complete left lung atelectasy (UR)) of the same compound?
A: 1

Q: And the “Other toxicities: Type” value ([2]; dose 100 mg/m^2)?
A: Complete left lung atelectasy (UR)

Q: And the “Neutropenia All grades, patients” value ([2]; dose 133 mg/m^2, 4 patients)?
A: 3

Q: What about the “Other toxicities Grades 1–2, patients” value ([2]; dose 133 mg/m^2, Hyperbilirubinemia (UR)) of the same compound?
A: 1

Q: What about the “Other toxicities: Type” value ([2]; dose 133 mg/m^2) of the same compound?
A: Hyperbilirubinemia (UR)

Q: What about the “Neutropenia All grades, patients” value ([2]; dose 177 mg/m^2, 3 patients) of the same compound?
A: 1

Q: And the “Other toxicities: Type” value ([2]; dose 177 mg/m^2)?
A: Vomiting (R), diarrhea (R), and nausea (R)

Q: And the “Other toxicities Grades 1–2, patients” value ([2]; dose 177 mg/m^2, Vomiting (R), diarrhea (R), and nausea (R))?
A: 1

Q: And the “Neutropenia All grades, patients” value ([2]; dose 236 mg/m^2, 4 patients)?
A: 1

Q: And the “Neutropenia Grades 3–4, patients” value ([2]; dose 236 mg/m^2, 4 patients)?
A: 1

Q: And the “Other toxicities Grades 1–2, patients” value ([2]; dose 236 mg/m^2, Edema of lower limb (UR))?
A: 1

Q: And the “Other toxicities: Type” value ([2]; dose 236 mg/m^2)?
A: Edema of lower limb (UR); also recorded: Vomiting (R) and diarrhea (R)

Q: What about the “Other toxicities Grades 1–2, patients” value ([2]; dose 236 mg/m^2, Vomiting (R)) of the same compound?
A: 1

Q: And the “Other toxicities Grades 3–4, patients” value ([2]; dose 236 mg/m^2, Vomiting (R) and diarrhea (R))?
A: 1

Q: And the “Neutropenia All grades, patients” value ([2]; dose 313 mg/m^2, 6 patients)?
A: 6

Q: And the “Neutropenia Grades 3–4, patients” value ([2]; dose 313 mg/m^2, 6 patients)?
A: 4

Q: What about the “Other toxicities Grades 3–4, patients” value ([2]; dose 313 mg/m^2, Diarrhea (R)) of the same compound?
A: 1

Q: And the “Other toxicities Grades 1–2, patients” value [2, 9]?
A: 1

Q: And the “Other toxicities Grades 3–4, patients” value [2, 9]?
A: 1

Q: And the “Other toxicities: Type” value ([2]; dose 313 mg/m^2)?
A: Diarrhea (R); also recorded: Hyperbilirubinemia (UR)

Q: What about the “Neutropenia All grades, patients” value ([2]; dose 416 mg/m^2, 6 patients) of the same compound?
A: 6

Q: What about the “Neutropenia Grades 3–4, patients” value ([2]; dose 416 mg/m^2, 6 patients) of the same compound?
A: 4

Q: And the “Other toxicities: Type” value ([2]; dose 416 mg/m^2)?
A: Vomiting (UR), pyrexia (UR), and chills (R)

Q: And the “Other toxicities Grades 1–2, patients” value ([2]; dose 416 mg/m^2, Vomiting (UR), pyrexia (UR), and chills (R))?
A: 1

Q: What about the “Abdominal pain: Number of patients with ≥1 adverse event” value [2, 10] of the same compound?
A: 8

Q: And the “Abdominal pain: Total (%)” value [2, 10]?
A: 19.0%

Q: What about the “Alanine aminotransferase elevation increased: Number of patients with ≥1 adverse event” value [2, 10] of the same compound?
A: 5

Q: What about the “Alanine aminotransferase elevation increased: Total (%)” value [2, 10] of the same compound?
A: 11.9%

Q: What about the “Alopecia: Number of patients with ≥1 adverse event” value [2, 10] of the same compound?
A: 8

Q: What about the “Alopecia: Total (%)” value [2, 10] of the same compound?
A: 19.0%

Q: And the “Anemia: Number of patients with ≥1 adverse event” value [2, 10]?
A: 13

Q: What about the “Anemia: Total (%)” value [2, 10] of the same compound?
A: 31.0%

Q: What about the “Anorexia: Number of patients with ≥1 adverse event” value [2, 10] of the same compound?
A: 9

Q: And the “Anorexia: Total (%)” value [2, 10]?
A: 21.4%

Q: And the “Ascites: Number of patients with ≥1 adverse event” value [2, 10]?
A: 5

Q: What about the “Ascites: Total (%)” value [2, 10] of the same compound?
A: 11.9%

Q: And the “Asthenia: Number of patients with ≥1 adverse event” value [2, 10]?
A: 18

Q: What about the “Asthenia: Total (%)” value [2, 10] of the same compound?
A: 42.9%

Q: And the “Constipation: Number of patients with ≥1 adverse event” value [2, 10]?
A: 6

Q: What about the “Constipation: Total (%)” value [2, 10] of the same compound?
A: 14.3%

Q: And the “Cough: Number of patients with ≥1 adverse event” value [2, 10]?
A: 5

Q: And the “Cough: Total (%)” value [2, 10]?
A: 11.9%

Q: And the “Diarrhea: Number of patients with ≥1 adverse event” value [2, 10]?
A: 17

Q: What about the “Diarrhea: Total (%)” value [2, 10] of the same compound?
A: 40.5%

Q: What about the “Dyspnea: Number of patients with ≥1 adverse event” value [2, 10] of the same compound?
A: 9

Q: What about the “Hypoalbuminemia: Number of patients with ≥1 adverse event” value [2, 10] of the same compound?
A: 5

Q: What about the “Hypoalbuminemia: Total (%)” value [2, 10] of the same compound?
A: 11.9%

Q: And the “Leukopenia: Number of patients with ≥1 adverse event” value [2, 10]?
A: 6

Q: And the “Leukopenia: Total (%)” value [2, 10]?
A: 14.3%

Q: What about the “Lymphopenia: Number of patients with ≥1 adverse event” value [2, 10] of the same compound?
A: 7

Q: And the “Lymphopenia: Total (%)” value [2, 10]?
A: 16.7%

Q: And the “Nausea: Number of patients with ≥1 adverse event” value [2, 10]?
A: 18

Q: What about the “Nausea: Total (%)” value [2, 10] of the same compound?
A: 42.9%

Q: What about the “Neutropenia: Number of patients with ≥1 adverse event” value [2, 10] of the same compound?
A: 8

Q: What about the “Neutropenia: Total (%)” value [2, 10] of the same compound?
A: 19.0%

Q: And the “Pyrexia: Number of patients with ≥1 adverse event” value [2, 10]?
A: 7

Q: What about the “Pyrexia: Total (%)” value [2, 10] of the same compound?
A: 16.7%

Q: And the “Rash: Number of patients with ≥1 adverse event” value [2, 10]?
A: 9

Q: What about the “Rash: Total (%)” value [2, 10] of the same compound?
A: 21.4%

Q: And the “Vomiting: Number of patients with ≥1 adverse event” value [2, 10]?
A: 14

Q: What about the “Vomiting: Total (%)” value [2, 10] of the same compound?
A: 33.3%

Q: And the “Weight decreased >10%: Number of patients with ≥1 adverse event” value [2, 10]?
A: 5

Q: What about the “Weight decreased >10%: Total (%)” value [2, 10] of the same compound?
A: 11.9%

Q: And the “recommended Phase II dose (RP2D)” value ([2]; iv 2-hour infusion every 2 weeks)?
A: 313 mg/m^2

Q: What about the “maximum tolerated dose (MTD)” value ([2]; iv every 2 weeks, patients with advanced/metastatic solid tumors) of the same compound?
A: 313 mg/m^2

Q: What about the objective response ([3]; 42 patients) of the same compound?
A: No patient

Q: And the median progression-free survival ([3]; 95% CI 3–17 months)?
A: 11 months

Q: What about the “patients with stable disease status maintained for six cycles or longer” value ([3]; in vivo) of the same compound?
A: seven

Q: What about the “changes in QRS morphology or interval measurements” value ([4]; all doses) of the same compound?
A: no clinically significant drug-related changes

Q: And the “instances of postdose QTc >450 ms” value ([4]; all doses)?
A: four

Q: What about the “instances of postdose QTc >500 ms” value ([4]; all doses) of the same compound?
A: no instances

Q: And the “QTc at the end of dosing” value ([4]; one patient, 416 mg/m^2, cycle 3, predose QTc 391 ms)?
A: 484 ms

Q: What about the solubility in water [5] of the same compound?
A: highly soluble

Q: And the “resolution of immediate effects resembling an infusion reaction” value [6]?
A: resolved spontaneously within a few hours

Q: And the “severity of immediate effects resembling an infusion reaction” value [6]?
A: moderate severity

Q: And the histamine release [7]?
A: histamine release induced

Q: And the histamine release [8]?
A: histamine release induced

From publication PMC5123727 (International Journal of Nanomedicine, 2016)
